Results from US20220160939A1, “SELF-ASSEMBLING PEPTIDES AS BRONCHIAL OBSTRUCTION AGENTS” (3-D MATRIX, LTD., priority 2014, published 2022).
Where no end group is shown, it is not given here.

Tests used:
Type in all cases: physicochemical
[1] = Gelation of peptide solutions after saline buffer treatment, time sweep test; conditions: saline buffer (0.15 M of NaCl), no pH change; IEIK13 1.5%, KLD12 1.5%, PuraMatrix 2.5%
Description: The effect of salt ionic strength level surrounding peptides in solution on the properties of peptide solutions was evaluated to identify the possibility of peptide gelation when the peptide solution is placed into the environment where salt ionic strength level is high. […] Without pH effect, the effect of saline treatment on gelation of peptide solutions were evaluated. […] This is because IEIK13 (SEQ ID NO:2) is much more sensitive to salt ionic strength levels. Fast gelation of IEIK13 (SEQ ID NO:2) at the salt ionic strength level similar to body fluid isotonic salt level may generally improve its function and gelation speed for various clinical applications. The results are shown in FIG. 19 for IEIK13 (SEQ ID NO:2), KLD12 (SEQ ID NO:3) and PuraMatrix® (SEQ ID NO:1) solutions. Time sweep tests were performed at 1 rad/sec and at 1 Pa with 20 mm plates and 500 μm gap distance. […]

[2] = Salt ionic strength plus pH adjustment: appearance and rheological properties; conditions: for appearance of peptide solutions: 0.9% NaCl (ionic strength: 0.15 M) at pH 3.4 adjusted with NaOH
Description: In accordance with one or more embodiments, IEIK13 (SEQ ID NO:2), KLD12 (SEQ ID NO:3), and PuraMatrix® (SEQ ID NO:1) may be dissolved both in salt buffer such as NaCl and at an elevated pH level adjusted with alkali salt buffer such as NaOH to keep their salt ionic strength under their critical salt points as well as their pH level to about 2.5˜4.0, so that they may have stiffer properties. With respect to PuraMatrix® (SEQ ID NO:1), […] and IEIK13 (SEQ ID NO:2), the peptide solutions are still clear with 0.9% NaCl (ionic strength: 0.15 M) at pH 3.4 adjusted with NaOH. The rheological property of PuraMatrix® (SEQ ID NO:1) with 0.9% NaCl (ionic strength: 0.15 M) at pH 3.4 was stiffer than those of PuraMatrix® (SEQ ID NO:1) control and PuraMatrix® (SEQ ID NO:1) with only NaCl 0.9%. The effect of salt ionic strength and pH adjustment on the rheological properties of PuraMatrix® (SEQ ID NO:1) 2.5% solution are shown in FIG. 20. Frequency sweep tests were performed from 1 rad/sec to 10 rad/sec at 1 Pa and the storage modulus at 1 rad/sec was selected for data.

[3] = Rheological properties of peptide solutions at adjusted salt ionic strength; conditions: for rheological property after adjusting ionic strength level with NaCl: NaCl to 0.7 M (PuraMatrix), 0.2 M (KLD12) or 0.02 M (IEIK13); for rheological property after adjusting ionic strength level with NaCl / ionic strength up to which the rheological property of 1% solutions increases (decreases above): 1% solutions; for ionic strength up to which the rheological property of 1% solutions increases (decreases above): storage modulus at 1 rad/sec
Description: Based on the visual observation of the effect of salt ionic strength on the properties of the peptide solutions, the effect on the rheological properties of the peptide solutions after adjusting their ionic strength level with NaCl to 0.7 M (PuraMatrix® (SEQ ID NO:1)), 0.2 M (KLD12 (SEQ ID NO:3)) or 0.02 M (IEIK13 (SEQ ID NO:2)), which is closely below the critical ionic strength at which each peptide becomes cloudy, was evaluated. If the ionic strength levels with NaCl of peptide solutions are higher than 0.9 M (PuraMatrix® (SEQ ID NO:1)), 0.3 M (KLD12 (SEQ ID NO:3)) or 0.03 M (IEIK13 (SEQ ID NO:2)), the peptide solutions begin phase separation becoming cloudy and weak. The rheological property of PuraMatrix® (SEQ ID NO:1), KLD12 (SEQ ID NO:3) and IEIK13 (SEQ ID NO:2) solutions was higher after adjusting their ionic strength level with NaCl to 0.7 M (PuraMatrix® (SEQ ID NO:1)), 0.2 M (KLD12 (SEQ ID NO:3)) or 0.02 M (IEIK13 (SEQ ID NO:2)). The results are shown in FIG. 10 for KLD12 (SEQ ID NO:3) 1%, FIG. 11 for IEIK13 (SEQ ID NO:2) 1%, and FIG. 12 for PuraMatrix® (SEQ ID NO:1) 1%, respectively. Frequency sweep tests were performed from 1 rad/s to 10 rad/s at 1 Pa.
Based on the results of the effect on the rheological properties of the peptide solutions after adjusting their ionic strength level with NaCl to 0.7 M (PuraMatrix® (SEQ ID NO:1)), 0.2 M (KLD12 (SEQ ID NO:3)) or 0.02 M (IEIK13 (SEQ ID NO:2)), the effect on the rheological properties of the peptide solution at various salt ionic strengths was evaluated. […] The results are shown in FIG. 13 for PuraMatrix® (SEQ ID NO:1) 1% solutions and in FIG. 14 for IEIK13 (SEQ ID NO:2) 1% solutions. Frequency sweep tests were performed from 1 rad/sec to 10 rad/sec at 1 Pa and the storage modulus at 1 rad/sec was selected for data.
(§1) Based on the results of the effect on the rheological properties of the peptide solutions and hydrogels after adjusting their ionic strength levels with NaCl, the effect of various salts (KCl, MgCl2, and CaCl2) was also evaluated. The rheological property of PuraMatrix® (SEQ ID NO:1) solutions increases with ionic strength adjustment at 0.15 M of all the salts. Increases of the rheological property of PuraMatrix® (SEQ ID NO:1) solutions with various salts were not predominantly different. However, increases of the rheological property of PuraMatrix® (SEQ ID NO:1) solutions may vary depending on the salting out constant, K of each salt. Constant K is a constant in Cohen's equation: log S=B−KI, where S is solubility, B is idealized solubility, K is salting out constant, and I is ionic strength. With a higher value of constant K and ionic strength of salts, solubility of the peptide may decrease resulting in strong peptide self-assembly with increased hydrophobic effect and higher rheological properties of the peptide solution. The constant K of NaCl may be higher than the other salts. […] The results are shown in FIG. 17 for PuraMatrix® (SEQ ID NO:1) 1% solution before DMEM treatment, and in FIG. 18 for PuraMatrix® (SEQ ID NO:1) 1% hydrogels after DMEM treatment for 10 min Frequency sweep tests were performed from 1 rad/sec to 10 rad/sec at 1 Pa and the storage modulus at 1 rad/sec was selected for data.

[4] = Rheological properties of ionic strength adjusted hydrogels after DMEM treatment for 10 min; conditions: 1% hydrogels
Description: Based on the results of the effect on the rheological properties of the peptide solutions after adjusting their ionic strength levels, the effect on the rheological properties of the peptide hydrogels after DMEM treatment for 10 min was evaluated. […] The results are shown in FIG. 15 for PuraMatrix® (SEQ ID NO:1) 1% hydrogels and in FIG. 16 for IEIK13 (SEQ ID NO:2) 1% hydrogels, both after DMEM treatment for 10 min. Frequency sweep tests were performed from 1 rad/sec to 10 rad/sec at 1 Pa and the storage modulus at 1 rad/sec was selected for data.
as §1

Substance | gelation after saline buffer treatment [1] | appearance of peptide solutions [2] | ionic strength level with NaCl above which solutions begin phase separation becoming cloudy and weak [3] | rheological property after adjusting ionic strength level with NaCl [3] | rheological property versus control and versus only NaCl 0.9% ([2]; 2.5% solution, 0.9% NaCl (ionic strength: 0.15 M) at pH 3.4) | rheological property of solutions with ionic strength adjustment ([3]; 0.15 M ionic strength of all the salts (NaCl, KCl, MgCl2, CaCl2), 1% solution) | rheological property of solutions with NaCl versus KCl and CaCl2 ([3]; 0.15 M ionic strength, 1% solution) | ionic strength up to which the rheological property of 1% solutions increases (decreases above) [3] | ionic strength above which the rheological property of hydrogels after DMEM treatment decreases ([4]; DMEM treatment for 10 min) | ionic strength up to which the rheological property of hydrogels after DMEM treatment increased ([4]; DMEM treatment for 10 min) | rheological property of hydrogels after DMEM treatment ([4]; ionic strength adjustment up to 0.025 M, DMEM 10 min)
KLDLKLDLKLDL [KLD12] | no or negligible gelation | still clear | > 0.3 M | higher | – | – | – | – | – | – | –
Arg-Ala-Asp-Ala-Arg-Ala-Asp-Ala-Arg-Ala-Asp-Ala-Arg-Ala-Asp-Ala [PuraMatrix ®] | no or negligible gelation | still clear | higher than 0.9 M | higher | stiffer | increases | slightly higher | up to 0.7 M | above 0.7 M | up to 0.7 M | –
Ile-Glu-Ile-Lys-Ile-Glu-Ile-Lys-Ile-Glu-Ile-Lys-Ile [IEIK13] | fast gelation | still clear | > 0.03 M | higher | – | – | – | up to 0.03 M | above 0.03 M | – | did not significantly change
